Measured values published in PMC3130014, “The Cryo-EM Structure of a Complete 30S Translation Initiation Complex from Escherichia coli” (PLoS Biology, 2011).

Target: T1, initiation factor 2 (IF2α) from E. coli (E. coli, UniProt P0A705 1-890)
T1 construct: Translation initiation factor IF2, alpha form (IF2α), E. coli; CTD: G2 391-559, G3 560-672, C1 673-779, C2 780-890); source: prepared as described [14]
Test: cryo-EM structure; 30S IC reconstituted from 30S subunits (0.1 µM), IF1 (0.3 µM), IF2α (0.2 µM), IF3 (0.3 µM), 002 mRNA (0.6 µM), fMet-tRNA^fMet (0.6 µM), GDPNP (0.5 mM); 37°C 15 min, buffer A (50 mM Tris-HCl pH 7.5, 70 mM NH4Cl, 30 mM KCl, 7 mM MgCl2); class 2 map at 18.3/15 Å; rigid-body and flexible fitting of a homology model of IF2
Settings: both partners purified

T1 sequence (P0A705 whole entry): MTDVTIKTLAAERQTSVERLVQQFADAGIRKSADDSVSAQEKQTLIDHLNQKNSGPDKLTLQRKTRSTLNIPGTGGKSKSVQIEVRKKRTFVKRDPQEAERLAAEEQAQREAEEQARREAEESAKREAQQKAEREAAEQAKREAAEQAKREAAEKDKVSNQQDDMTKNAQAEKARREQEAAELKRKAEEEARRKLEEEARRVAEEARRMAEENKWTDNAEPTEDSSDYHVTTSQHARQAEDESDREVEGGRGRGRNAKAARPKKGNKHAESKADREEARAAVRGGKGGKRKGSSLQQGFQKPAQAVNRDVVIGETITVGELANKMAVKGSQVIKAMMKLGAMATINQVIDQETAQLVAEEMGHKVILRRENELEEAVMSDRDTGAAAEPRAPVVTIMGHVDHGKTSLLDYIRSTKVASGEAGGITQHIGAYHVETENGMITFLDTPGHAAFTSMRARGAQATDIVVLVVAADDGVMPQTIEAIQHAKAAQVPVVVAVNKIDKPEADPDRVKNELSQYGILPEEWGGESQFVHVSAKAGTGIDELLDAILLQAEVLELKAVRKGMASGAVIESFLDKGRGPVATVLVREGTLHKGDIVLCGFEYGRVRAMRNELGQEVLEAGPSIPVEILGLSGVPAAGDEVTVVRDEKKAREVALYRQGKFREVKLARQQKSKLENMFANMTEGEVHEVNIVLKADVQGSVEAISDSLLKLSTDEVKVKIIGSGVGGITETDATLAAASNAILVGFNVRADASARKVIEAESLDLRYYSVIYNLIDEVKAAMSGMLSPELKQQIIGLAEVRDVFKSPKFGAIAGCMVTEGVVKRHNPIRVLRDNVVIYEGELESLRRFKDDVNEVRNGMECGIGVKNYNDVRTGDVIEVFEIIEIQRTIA

B1: initiation factor 1 (IF1) from E. coli (natural protein, UniProt P69222 1-72, looked up)
chain: MAKEDNIEMQGTVLETLPNTMFRVELENGHVVTAHISGKMRKNYIRILTGDKVTVELTPYDLSKGRIVFRSR
notes: Translation initiation factor IF1, E. coli; source: prepared as described [14]
  binding result: binds
